{"source": "IntAct's records for PubMed 26051712", "parents": {"B1": {"name": "Inner nuclear membrane protein SRC1 (Saccharomyces cerevisiae), Q03707 (parent)", "chain": "MNSDLEYLEDGFDPNSMKVATLRRILVENNVDFPSNARKNALVGLFDEKVKPQIPQLRKMYLNVRPSDEGIVKMDRPSSSPSIASPRRSRRARREKSASPMAKQFKKNRILDDVSNDDDDDDDDDDDNDKKDDPLIVPSGTDTDEVDDEEDDVITSSSNKSDTNDFQQNSDTRKKRKDPDSDDWSESNSKENKIDNKHLNLLSSDSEIEQDYQKAKKRKTSDLNQEHGNGSAILGKLSVKTPIKNTNRKPVSMDNFNDSLTSSGTENDPFVPNIRHNPKELGTANGTGHSTPLSKLKVSASFADKLPQKEVPSTILVPEVEQQEPSQSERTPSLFSSEGSGSESEAPLLPEITTPGPHQPMGNTSNNVVEMIDTDSSNLVSDEDEVLVPTRIETPQLPTEKDVEKCEARVQELQEEVNEQLEHENGSEFDVKQGSGKVGNRHKFKRALKFLSKSLLALFLFCIFIVIPLLFGLWYREQRLLIGYCGHEVPSHRVSGNSFEFIQKLDNLLQDYRPKCIPCPPNGICYPYLKLKCKPDYKLAPSRLDFLEIIPAQGKCVKDDKKQQLVSEVVEKSLEFLRAKNAQISCGDGKDDIESGMTEDALYQIFNEARAPWIRDDEFEDLWIQVIKDLTEEPEILWRQLSPTDNNIGGNSNNIIKTNDVPRQKRHLPEKFISKTRNFRSTSKKYIGMKCRFEREIYQTYKKFQRPIWLMFLLIVISKVIEIKLKNYYRKKARIEELVTQTMEKLKFQKIKSMSDPKENAYLSIVQLRDIFLSDIVDLKYKNQLWSEVVKYLEHNNSNIKSNLTEIRGEIMKCWEWIGPMELNEPKDSAENKI"}, "B2": {"name": "Inner nuclear membrane protein HEH2 (Saccharomyces cerevisiae), Q03281 (parent)", "chain": "MDHRNLDPKTLKVSQLRRVLVENDVAFPANARKPVLVKLFEEKVRQRLQSSPEASKVRTSIQKVVKSGAKNADRKKTLKSKKLESSSSESKTVKDENVETNKRKREQISTDNEAKMQIQEEKSPKKKRKKRSSKANKPPESPPQSKSDGKATSADLTSELETVEELHKKDSSDDKPRVKELPKPELPNLKVSNEFLAQLNKELASAATENYDHSIKSTDLSSIRIETEEPVGPSTGAETRNESEVMENINLEVQPEVKEAKEELTKISETFDNQDEEDTSRLSSKKNIRSPKGRTRHFIANKTKRGIDIMKPFIAHLFIWLWNGAIFLSIICPILFGLWYREQRIQVGYCGHEKPLKSLAISAFPQTERVDSVLQAYRPNCLECPEHGICSSFMNVECEPGYEPKSSILETYGIIPFPKYCAKDESKEKEVDELVWKVNEYLKKKNAQHECGEGENLFESGETETKLYDIFSHSRPSWESQREFNDHWKNVLEILKKKDDIIWLPLDFETNGKREKSKSNNTNYIYRSTSKKWVTLQCHLEGDIQEYITKYGGSLFITLGVLFLIKKIQSTLDNYVQGEQIIEKLVKEAIDKLKDVKKNKGEEPFLTTVQLRATLLSDIPNIKEQNNLWAQTKEKIMKEQSENIELYLLEENGEIMTCWEWKE"}}, "data": [{"variants_of": "B1", "conditions": "with ima1_yeast SRP1, Q02821", "values": [{"variant": "R176A", "effect of a mutation on the interaction": "decreasing interaction strength"}, {"variant": "R176A;K190A", "effect of a mutation on the interaction": "decreasing interaction strength"}]}, {"variants_of": "B1", "conditions": "with ima1_yeast SRP1, Q02821", "remark": "another data set of the same source", "values": [{"variant": "K190A", "effect of a mutation on the interaction": "decreasing interaction strength"}]}, {"variants_of": "B2", "conditions": "with ima1_yeast SRP1, Q02821", "values": [{"variant": "R103A", "effect of a mutation on the interaction": "decreasing interaction strength"}, {"variant": "K126A", "effect of a mutation on the interaction": "decreasing interaction strength"}, {"variant": "R103A;K126A", "effect of a mutation on the interaction": "decreasing interaction strength"}]}]}
